Residue numbers refer to the chain shown, from its start.
B1: ICOSIg homologue replacement mutant RP64-78 (Fc fusion)
chain: EINGSANYEMFIFHNGGVQILCKYPDIVQQFKMQLLKGGQILCVVYGNYSQQLQVYSKSLKFCHSQLSNNSVSFFLYNLDHSHANYYFCNLSIFDPPPFKVTLTGGYLHIYESQLCCQLK
notes: not shown: CH2-CH3 portion of human IgG1
B2: wild-type ICOSIg (extracellular domain of human ICOS fused to the CH2-CH3 portion of human IgG1) (Fc fusion)
chain: EINGSANYEMFIFHNGGVQILCKYPDIVQQFKMQLLKGGQILCDLTKTKGSGNTVSIKSLKFCHSQLSNNSVSFFLYNLDHSHANYYFCNLSIFDPPPFKVTLTGGYLHIYESQLCCQLK
notes: Made in COS cells; used as concentrated supernatant or purified; also called human ICOSIg; not shown: CH2-CH3 portion of human IgG1
B3: ICOSIg mutant Phe51Ser (Fc fusion)
chain: B2 chain with F31S
notes: Built on ICOSIg cDNA; not shown: CH2-CH3 portion of human IgG1
B4: ICOSIg mutant Gln50Ser (Fc fusion)
chain: B2 chain with Q30S
notes: as for B3
B5: ICOSIg mutant Asp115Ser (Fc fusion)
chain: B2 chain with D95S
notes: as for B3
B6: ICOSIg mutant Ser76Glu (Fc fusion)
chain: B2 chain with S56E
notes: Built on ICOSIg cDNA; also called Ser76Glu mutant; Ser76Glu protein; not shown: CH2-CH3 portion of human IgG1
B7: ICOSIg mutant Lys52Ser (Fc fusion)
chain: B2 chain with K32S
notes: as for B3
B8: ICOSIg homologue replacement mutant RP49-52 (Fc fusion)
chain: B2 chain with Q29R, Q30E, K32R
notes: as for B1
B9: ICOSIg mutant Lys67Ser (Fc fusion)
chain: B2 chain with K47S
notes: as for B3
B10: ICOSIg mutant Asp64Ser (Fc fusion)
chain: B2 chain with D44S
notes: as for B3
B11: ICOSIg mutant Lys69Ser (Fc fusion)
chain: B2 chain with K49S
notes: as for B3
B12: ICOSIg mutant Pro117Ser (Fc fusion)
chain: B2 chain with P97S
notes: Built on ICOSIg cDNA; also called Pro117Ser mutant; not shown: CH2-CH3 portion of human IgG1
B13: ICOSIg mutant Phe114Ser (Fc fusion)
chain: B2 chain with F94S
notes: as for B3
B14: ICOSIg mutant Gln49Ser (Fc fusion)
chain: B2 chain with Q29S
notes: as for B3
B15: ICOSIg mutant Phe119Ser (Fc fusion)
chain: B2 chain with F99S
notes: as for B3

How the values were obtained:
[1] = target: T1, human B7-H2 expressed on transfected CHO cells (human, UniProt O75144 19-302); test: FACS on CHO cells transfected to express B7-H2
T1 construct: whole, on cells; also called B7-H2+ CHO cells
T1 sequence (looked up): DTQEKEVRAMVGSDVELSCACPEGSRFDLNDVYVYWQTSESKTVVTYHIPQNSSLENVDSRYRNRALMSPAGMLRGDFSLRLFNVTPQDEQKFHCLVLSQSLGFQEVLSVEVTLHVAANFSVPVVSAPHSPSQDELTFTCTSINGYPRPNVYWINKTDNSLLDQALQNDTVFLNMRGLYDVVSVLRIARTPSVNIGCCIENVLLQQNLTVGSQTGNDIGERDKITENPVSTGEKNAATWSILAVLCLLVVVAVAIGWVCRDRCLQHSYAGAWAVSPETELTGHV
Method: Flow cytometry: B7-H2⁺ CHO cells (1×10⁵ cells per sample) were incubated on ice for 45 minutes, in a 1:1 mixture of fluorescence activated cell sorter (FACS) buffer (3% FBS and 0.02% NaN₃ in PBS):COS cell culture media containing ICOSIg fusion proteins. The B7-H2Ig fusion protein was used as a negative control. The cells were washed and further incubated with fluorescein isothiocyanate (FITC)-conjugated goat anti-human IgG (BioSource, Camarillo, Calif.) on ice for 30 minutes. Fluorescence was analyzed on a FACScaliber flow cytometer (Becton Dickinson, Mountain View, Calif.) with Cell Quest software (Becton Dickinson).
Mutagenesis analysis of the interaction between ICOS and B7-H2: The conserved regions within ICOS were subjected to mutagenesis in order to analyze their importance for binding to B7-H2. […] These constructs were expressed as ICOSIg hybrid proteins in COS cells, and the concentrations of the mutant proteins in serum-free culture media was determined by sandwich ELISA using anti-human Ig mAbs (BD Pharmingen). […] The ability of each ICOSIg mutant to bind to B7-H2 was determined by sandwich ELISA using B7-H2Ig (mouse Ig) and anti-human Ig mAb (FIG. 3A), and also by FACS analysis of ICOSIg binding to CHO cells that were transfected to express B7-H2. […]

[2] = target: T2, B7-H2mIg (extracellular domain of human B7-H2 linked to mouse IgG2a) (human; mouse, UniProt O75144 19-256); test: capture ELISA, B7-H2mIg coated, anti-human IgG-HRP detection
T2 construct: extracellular domain; also called B7-H2Ig (mouse Ig); B7-H2Ig; not shown: mouse IgG2a
T2 sequence (looked up): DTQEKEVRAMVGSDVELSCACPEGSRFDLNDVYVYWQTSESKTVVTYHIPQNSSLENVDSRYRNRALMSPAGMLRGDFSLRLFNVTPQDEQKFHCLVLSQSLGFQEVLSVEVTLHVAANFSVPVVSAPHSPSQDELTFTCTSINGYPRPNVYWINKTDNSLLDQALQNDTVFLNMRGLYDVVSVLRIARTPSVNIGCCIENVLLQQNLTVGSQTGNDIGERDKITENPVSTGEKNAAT
Method: The ability of ICOSIg mutants to bind B7-H2 was measured using capture ELISA. Recombinant B7-H2mIg fusion proteins were coated on microtiter plates at 5 μg/ml and incubated overnight at 4° C. As described above, wells were blocked and then washed with PBS-Tween, and COS cell culture media was added and incubated for 2 hours at room temperature. HRP-conjugated goat anti-human IgG was added after washing, followed by TMB substrate and H₂SO₄, and absorbance was measured at 405 nm.
^a The regions, nucleotides, or amino acids in front of the slash were replaced with the corresponding regions, nucleotides, or amino acids after the slash. ^b Nucleotides are numbered from the A of the initiation codon. ^c Amino acids are numbered from the initiation methionine. ^d Specific binding activities were determined for each of the indicated fusion proteins. The concentration of a fusion protein required to give an arbitrary A405, which is the same as that of wild type ICOSIg, was determined from the linear region of binding curves and expressed as a percentage of specific binding activity of ICOSIg. Values represent the average of three determinations from each binding curve. The results are representative of three experiments.

[3] = target: T1, human B7-H2 expressed on transfected …; test: FACS on B7-H2+ CHO cells
[4] = target: T3, B7-H2Ig fusion protein (extracellular domain of human B7-H2 linked to an Ig portion); which one not said for … (human, UniProt O75144 19-256); test: cell-based or functional assay
T3 sequence (looked up): T2 sequence (looked up)

Binder	binding result [1]	B7-H2 Binding (specific binding activity as percentage of ICOSIg) [2]	binding result [3]	T cell proliferation ([3H]-thymidine) costimulated by immobilized B7-H2Ig with anti-CD3 mAb [4]
B1	no binding	< 0.1 % of wild type ICOSIg		
B2		100 % of wild type ICOSIg		
B3		< 0.1 % of wild type ICOSIg	no binding	
B4		6 % of wild type ICOSIg		
B5		< 0.1 % of wild type ICOSIg	no binding	
B6		300 % of wild type ICOSIg		~10 fold (against wild-type ICOSIg)
B7		200 % of wild type ICOSIg		
B8		9 % of wild type ICOSIg		
B9		< 0.1 % of wild type ICOSIg	no binding	
B10		6 % of wild type ICOSIg		
B11		3 % of wild type ICOSIg		
B12		< 0.1 % of wild type ICOSIg	no binding	
B13		< 0.1 % of wild type ICOSIg	no binding	
B14		33 % of wild type ICOSIg		
B15		< 0.1 % of wild type ICOSIg	no binding	

Source: patent publication US20030158102A1 (MAYO FOUNDATION FOR MEDICAL EDUCATION AND RESEARCH, published 2003)
